Reference: the supplement of paper PMC10567573

B1: LMNB1 (parent)
chain: LYKEELEQTYHAKLENARLSSEMN

Variants of: B1
Experiment: protein stability index of a GFP-peptide fusion (GPS, HEK-293T) (PSI 1-6); higher = more stable
Conditions: c terminus: a fixed tail appended
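Note: lentivirally expressed fusions sorted by FACS into six bins by GFP to DsRed ratio, PSI derived from sequencing read proportions per bin multiplied by bin number.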

Variant	protein stability index
LYKEELEQTYHAKLENARLSSWMN [E22W]	1.74
LYKEELEQTYHAKLENARLSSMMN [E22M]	2.58
LYKEELEQTYHAKLENARLSSDMN [E22D]	2.62
LYKEELEQTYHAKLENARLSSAMN [E22A]	2.63
LYKEELEQTYHAKLENARLSSLMN [E22L]	2.68
LYKEELEQTYHAKLENARLSSFMN [E22F]	1.93
LYKEELEQTYHAKLENARLSSGMN [E22G]	2.81
LYKEELEQTYHAKLENARLSSVMN [E22V]	2.42
LYKEELEQTIHAKLENARLSSEMN [Y10I]	4.17
LYKEELEQTMHAKLENARLSSEMN [Y10M]	4.27
LYKEELEQTCHAKLENARLSSEMN [Y10C]	4.16
LYKEELEQTVHAKLENARLSSEMN [Y10V]	4.49
LYKEELEQTQHAKLENARLSSEMN [Y10Q]	4.79
LYKEELEQTAHAKLENARLSSEMN [Y10A]	4.25
LYKEELEQTWHAKLENARLSSEMN [Y10W]	2.63
LYKEELEQTKHAKLENARLSSEMN [Y10K]	5.14
LYKEELEQTRHAKLENARLSSEMN [Y10R]	4.48
LYKEELEQTHHAKLENARLSSEMN [Y10H]	4.8
LYKEELEQTYHAKLENARKSSEMN [L19K]	3.35
LYKEELEQTYHAKLENARNSSEMN [L19N]	3.76
LYKEELEQTYHAKLENARHSSEMN [L19H]	3.31
LYKEELEQTYHAKLENARQSSEMN [L19Q]	3.92
LYKEELEQTYHAKLENARCSSEMN [L19C]	3.36
LYKEELEQTYHAKLENARASSEMN [L19A]	3.67

Variant	protein stability index
LYKEELEQTYHAKLENARFSSEMN [L19F]	2.68
LYKEELEQTYHAKLENARISSEMN [L19I]	2.39
LYKEELEQTYHAKLENARSSSEMN [L19S]	3.08
LYKEELEQTYHACLENARLSSEMN [K13C]	2.71
LYKEELEQTYHARLENARLSSEMN [K13R]	2.55
LYKEELEQTYHAVLENARLSSEMN [K13V]	2.8
LYKEELEQTYHAQLENARLSSEMN [K13Q]	3.06
LYKEELEQTYHASLENARLSSEMN [K13S]	2.82
LYKEELEQTYHALLENARLSSEMN [K13L]	2.38
LYKEELEQTYHAILENARLSSEMN [K13I]	1.95
LYKEELEQTYHANLENARLSSEMN [K13N]	3.35
LYKEELEQTYHAELENARLSSEMN [K13E]	4.33
LYKEELEQTYHADLENARLSSEMN [K13D]	4.59
LYKEELEQTYHATLENARLSSEMN [K13T]	2.06
LYKEELSQTYHAKLENARLSSEMN [E7S]	2.72
LYKEELTQTYHAKLENARLSSEMN [E7T]	3.26
LYKEELDQTYHAKLENARLSSEMN [E7D]	3.52
LYKEELFQTYHAKLENARLSSEMN [E7F]	1.83
LYKEELEQTYHAKLENARLSSEMG [N24G]	3.47
LYKEELEQTYHAKLENARLSSEMW [N24W]	1.79
LYKEELEQTYHAKLENARLSSEMY [N24Y]	2.27
LYKEELEQTYHAKLENARLSSEMQ [N24Q]	3.04
LYKEELEQTYHAKLENARLSSEMM [N24M]	2.6
LYKEELEQTYHAKLENARLSSEMA [N24A]	2.43

Variant	protein stability index
LYKEELEQTYHAKLENARLSSEME [N24E]	3.25
LYKEELEQTYHAKLENARLSSEMK [N24K]	2.33
LYKEELEQTYHAKLENARLSSEMI [N24I]	2.48
LYKEELEQTYHAKLCNARLSSEMN [E15C]	2.06
LYKEELEQTYHAKLRNARLSSEMN [E15R]	2.76
LYKEELEQTYHAKLTNARLSSEMN [E15T]	2.25
LYKEELEQTYHAKLNNARLSSEMN [E15N]	2.71
LYKEELEQTYHAKLHNARLSSEMN [E15H]	2.38
LYKEELEQTYHAKLLNARLSSEMN [E15L]	2.9
LYKEELEQTYHAKLVNARLSSEMN [E15V]	2.01
LYKEELEQTYHAKLENAHLSSEMN [R18H]	3.1
LYKEELEQTYHAKLENASLSSEMN [R18S]	2.92
LYKEELEQTYHAKLENAYLSSEMN [R18Y]	2.24
LYKEELEQTYHAKLENATLSSEMN [R18T]	2.73
LYKEELEQTYHAKLENAVLSSEMN [R18V]	2.1
LYKEELEQTYHAKLENAMLSSEMN [R18M]	2.76
LVKEELEQTYHAKLENARLSSEMN [Y2V]	1.77
LSKEELEQTYHAKLENARLSSEMN [Y2S]	4.12
LWKEELEQTYHAKLENARLSSEMN [Y2W]	1.5
LKKEELEQTYHAKLENARLSSEMN [Y2K]	3.27
LMKEELEQTYHAKLENARLSSEMN [Y2M]	2.31
LNKEELEQTYHAKLENARLSSEMN [Y2N]	3.46
LDKEELEQTYHAKLENARLSSEMN [Y2D]	4.18
LPKEELEQTYHAKLENARLSSEMN [Y2P]	3.06

Variant	protein stability index
LYKEELENTYHAKLENARLSSEMN [Q8N]	2.8
LYKEELEYTYHAKLENARLSSEMN [Q8Y]	2.45
LYKEELEPTYHAKLENARLSSEMN [Q8P]	3.84
LYKEELEETYHAKLENARLSSEMN [Q8E]	3.15
LYKEELEQTYHYKLENARLSSEMN [A12Y]	3.52
LYKEELEQTYHCKLENARLSSEMN [A12C]	2.09
LYKEELEQTYHWKLENARLSSEMN [A12W]	2.65
LYKEELEQTYHGKLENARLSSEMN [A12G]	3.44
LYKEELEQTYHKKLENARLSSEMN [A12K]	4.32
LYKEELEQTYHEKLENARLSSEMN [A12E]	4.72
LYKEELEQTYHIKLENARLSSEMN [A12I]	2.87
LYKEELEQTYHVKLENARLSSEMN [A12V]	3.48
LYKEELEQYYHAKLENARLSSEMN [T9Y]	3.31
LYKEELEQMYHAKLENARLSSEMN [T9M]	2.65
LYKEELEQHYHAKLENARLSSEMN [T9H]	2.7
LYKEELEQKYHAKLENARLSSEMN [T9K]	3.1
LYKEELEQSYHAKLENARLSSEMN [T9S]	3.92
LYKEELEQIYHAKLENARLSSEMN [T9I]	2.6
LYKEELEQEYHAKLENARLSSEMN [T9E]	4.24
LYKEELEQTYHAKWENARLSSEMN [L14W]	3.11
LYKEELEQTYHAKPENARLSSEMN [L14P]	5
LYKEELEQTYHAKDENARLSSEMN [L14D]	4.74
